The labels stand for the following.
B1: Gamma-crystallin C, residues 91 to 170; numbered along this chain, P07315 (parent)
chain: RLYEREDHKGLMMELSEDCPSIQDRFHLSEIRSLHVLEGCWVLYELPNYRGRQYLLRPQEYRRCQDWGAMDAKAGSLRRV

± gives the uncertainty stated by the source.

The data set covers variants of B1. In words: abundance fitness (aPCA) (normalised: wild type 0, dead -1); higher = more abundant; growth selection in yeast, the domain comes from the species named. The following applies: Homo sapiens.
For the variant H35C, the abundance fitness is -0.206 ± 0.076.

In the case of H35V, the abundance fitness came to 0.036 ± 0.061.

With H35L, the abundance fitness is -0.15 ± 0.06.

As for H35E, the abundance fitness came to 0.139 ± 0.091.

In the case of H35K, the abundance fitness is -0.029 ± 0.1.

As to H35G, the abundance fitness was -0.845 ± 0.12.

With H35P, the abundance fitness was -0.789 ± 0.32.

Consider H35D, for which the abundance fitness was -0.107 ± 0.086.

Consider H35A, for which the abundance fitness was -0.053 ± 0.057.

On to H35Y, for which the abundance fitness is -0.202 ± 0.14.

Regarding H35S, the abundance fitness is -0.05 ± 0.056.

For H35W, the abundance fitness was -0.354 ± 0.12.

For H35T, the abundance fitness stood at 0.081 ± 0.069.

For the variant H35I, the abundance fitness was -0.004 ± 0.1.

Regarding H35M, the abundance fitness was -0.222 ± 0.087.

On to H35N, for which the abundance fitness is -0.09 ± 0.11.

H35F: the abundance fitness was -0.325 ± 0.1.

As to S21I, the abundance fitness was -0.842 ± 0.14.

On to S21A, for which the abundance fitness was -0.467 ± 0.094.

Consider S21E, for which the abundance fitness is -0.554 ± 0.12.

For S21G, the abundance fitness is -0.613 ± 0.065.

S21N: the abundance fitness is 0.053 ± 0.2.

Consider S21M, for which the abundance fitness was -0.914 ± 0.29.

Regarding S21L, the abundance fitness was -0.761 ± 0.1.

As for S21P, the abundance fitness is -0.602 ± 0.23.

As to S21K, the abundance fitness is -0.472 ± 0.19.

On to S21D, for which the abundance fitness is -0.07 ± 0.14.

For the variant S21Y, the abundance fitness was -0.762 ± 0.18.

S21T: the abundance fitness is -0.456 ± 0.11.

On to S21V, for which the abundance fitness is -0.56 ± 0.057.

As to S21W, the abundance fitness is -0.904 ± 0.16.

As to S21R, the abundance fitness is -0.454 ± 0.052.

With S21H, the abundance fitness is -0.184 ± 0.14.

On to S21C, for which the abundance fitness is -0.089 ± 0.086.

On to H27T, for which the abundance fitness is -0.345 ± 0.096.

Regarding H27C, the abundance fitness was -0.115 ± 0.26.

As to H27M, the abundance fitness was -0.075 ± 0.094.

Turning to H27K, the abundance fitness was -0.137 ± 0.13.

Take H27R: the abundance fitness is -0.037 ± 0.059.

For the variant H27N, the abundance fitness is 0.075 ± 0.1.

As to H27V, the abundance fitness was -0.602 ± 0.093.

On to H27Q, for which the abundance fitness is -0.034 ± 0.1.

For H27W, the abundance fitness was -0.441 ± 0.068.

With H27G, the abundance fitness is 0.047 ± 0.037.

On to H27A, for which the abundance fitness is -0.069 ± 0.06.

With H27E, the abundance fitness was -0.119 ± 0.062.

Consider H27S, for which the abundance fitness was -0.079 ± 0.053.

Take H27L: the abundance fitness was -0.18 ± 0.056.

As for H27I, the abundance fitness is -0.739 ± 0.4.

As for H27F, the abundance fitness is -0.414 ± 0.14.

For the variant C19A, the abundance fitness is -0.836 ± 0.15.

Turning to C19K, the abundance fitness is -0.623 ± 0.2.

As to C19E, the abundance fitness is -0.369 ± 0.11.

Turning to C19T, the abundance fitness was -0.535 ± 0.036.

On to C19M, for which the abundance fitness is -0.761 ± 0.19.

As to C19Y, the abundance fitness was -0.712 ± 0.14.

C19P: the abundance fitness is -0.902 ± 0.24.

On to C19F, for which the abundance fitness was -0.969 ± 0.41.

As for C19R, the abundance fitness was -0.886 ± 0.11.

On to C19V, for which the abundance fitness was -0.43 ± 0.074.

Take C19S: the abundance fitness is -0.92 ± 0.19.

In the case of C19W, the abundance fitness was -0.807 ± 0.14.

C19L: the abundance fitness was -0.659 ± 0.099.

Turning to L34S, the abundance fitness was -0.897 ± 0.13.

Consider L34C, for which the abundance fitness is -0.161 ± 0.08.

As to L34E, the abundance fitness is -0.537 ± 0.12.

For L34T, the abundance fitness was -0.848 ± 0.26.

As to L34F, the abundance fitness is -0.097 ± 0.097.

As for L34M, the abundance fitness was found to be 0.027 ± 0.093.

Turning to L34V, the abundance fitness is -0.043 ± 0.064.

For the variant L34G, the abundance fitness was -0.725 ± 0.077.

As for L34I, the abundance fitness was 0.056 ± 0.077.

Take L34W: the abundance fitness is -0.486 ± 0.054.

On to L34Q, for which the abundance fitness was -0.781 ± 0.45.

Take L34Y: the abundance fitness was -0.572 ± 0.31.

In the case of L34A, the abundance fitness is -0.064 ± 0.065.

In the case of L34D, the abundance fitness is -0.579 ± 0.27.

For the variant F26K, the abundance fitness was -0.818 ± 0.31.

With F26V, the abundance fitness was -0.461 ± 0.058.

As for F26T, the abundance fitness was -0.217 ± 0.12.

Turning to F26Y, the abundance fitness was -0.461 ± 0.25.

Turning to F26G, the abundance fitness was -0.406 ± 0.064.

Consider F26Q, for which the abundance fitness was -0.787 ± 0.17.

Turning to F26E, the abundance fitness is -0.923 ± 0.29.

In the case of F26R, the abundance fitness was -0.886 ± 0.22.

As to F26M, the abundance fitness was -0.049 ± 0.1.

On to F26S, for which the abundance fitness is -0.69 ± 0.12.

Take F26W: the abundance fitness was -0.007 ± 0.081.

As to F26A, the abundance fitness was -0.564 ± 0.084.

Turning to F26L, the abundance fitness was -0.343 ± 0.066.

Consider F26I, for which the abundance fitness is -0.553 ± 0.41.

Consider F26C, for which the abundance fitness was -0.317 ± 0.17.

As for L15S, the abundance fitness is -0.832 ± 0.099.

For L15N, the abundance fitness was -0.6 ± 0.34.

As for L15V, the abundance fitness turned out to be 0.037 ± 0.057.

As to L15G, the abundance fitness was -1.03 ± 0.23.

In the case of L15D, the abundance fitness was -0.736 ± 0.33.

As to L15E, the abundance fitness is -0.89 ± 0.26.

Consider L15T, for which the abundance fitness is -0.389 ± 0.14.

With L15M, the abundance fitness was -0.431 ± 0.18.

On to L15F, for which the abundance fitness is -0.134 ± 0.18.

For the variant Q23F, the abundance fitness was -0.093 ± 0.23.

For the variant Q23C, the abundance fitness was -0.187 ± 0.09.

In the case of Q23K, the abundance fitness is -0.043 ± 0.092.

Regarding Q23W, the abundance fitness amounted to 0.003 ± 0.056.

With Q23E, the abundance fitness came to 0 ± 0.069.

Q23A: the abundance fitness was -0.044 ± 0.041.

Consider Q23I, for which the abundance fitness worked out at 0.007 ± 0.17.

On to Q23M, for which the abundance fitness is -0.033 ± 0.075.

Consider Q23L, for which the abundance fitness was -0.076 ± 0.044.

As for Q23R, the abundance fitness was -0.128 ± 0.047.

As to Q23V, the abundance fitness was -0.053 ± 0.045.

With Q23G, the abundance fitness is -0.124 ± 0.045.

For Q23N, the abundance fitness is -0.016 ± 0.14.

On to Q23P, for which the abundance fitness is -0.127 ± 0.089.

Regarding Q23S, the abundance fitness is -0.145 ± 0.078.

In the case of Q23H, the abundance fitness is -0.122 ± 0.13.

With Q23D, the abundance fitness is -0.276 ± 0.12.

With Q23Y, the abundance fitness was -0.17 ± 0.14.

For the variant I22M, the abundance fitness is -0.562 ± 0.13.

Take I22G: the abundance fitness was -0.921 ± 0.15.

In the case of I22T, the abundance fitness is -0.649 ± 0.2.

In the case of I22F, the abundance fitness is -0.47 ± 0.31.

As for I22Y, the abundance fitness was -0.6 ± 0.34.

Turning to I22C, the abundance fitness was -0.61 ± 0.27.

As to I22V, the abundance fitness was -0.149 ± 0.07.

With I22L, the abundance fitness was -0.084 ± 0.059.

For I22D, the abundance fitness is -0.89 ± 0.42.

For I22P, the abundance fitness is -0.978 ± 0.41.

Take I22A: the abundance fitness was -0.784 ± 0.3.

Consider I22R, for which the abundance fitness was -0.771 ± 0.17.

I22S: the abundance fitness is -0.975 ± 0.35.

I22W: the abundance fitness was -0.801 ± 0.17.

R32L: the abundance fitness is -0.359 ± 0.088.

As to R32P, the abundance fitness is -0.146 ± 0.087.

As to R32S, the abundance fitness was -0.466 ± 0.08.

Regarding R32C, the abundance fitness was -0.178 ± 0.1.

Consider R32I, for which the abundance fitness was -0.587 ± 0.35.

In the case of R32G, the abundance fitness came to 0.082 ± 0.061.

Consider R32M, for which the abundance fitness was -0.412 ± 0.23.

Consider R32V, for which the abundance fitness is -0.808 ± 0.14.

Consider R32Y, for which the abundance fitness was -0.417 ± 0.21.

For R32E, the abundance fitness is -0.478 ± 0.18.

Consider R32N, for which the abundance fitness was -0.146 ± 0.1.

With R32W, the abundance fitness is -0.631 ± 0.14.

On to R32Q, for which the abundance fitness is -0.279 ± 0.089.

With R32K, the abundance fitness was -0.018 ± 0.1.

Turning to R32D, the abundance fitness is -0.89 ± 0.42.

R32H: the abundance fitness was 0.009 ± 0.22.

Turning to R32F, the abundance fitness was -0.683 ± 0.23.

R32A: the abundance fitness is -0.302 ± 0.071.

For R25G, the abundance fitness is -0.602 ± 0.069.

As for R25V, the abundance fitness is -0.025 ± 0.058.

On to R25A, for which the abundance fitness is -0.086 ± 0.062.

Consider R25S, for which the abundance fitness was -0.078 ± 0.072.

R25L: the abundance fitness was -0.184 ± 0.085.

With R25T, the abundance fitness was -0.148 ± 0.089.

For R25K, the abundance fitness was -0.07 ± 0.063.

Consider R25Y, for which the abundance fitness is -0.463 ± 0.15.

Regarding R25D, the abundance fitness is -0.396 ± 0.19.

On to R25C, for which the abundance fitness is -0.339 ± 0.15.

R25I: the abundance fitness is -0.598 ± 0.3.

Consider R25W, for which the abundance fitness was -0.134 ± 0.053.

Regarding R25P, the abundance fitness is -0.736 ± 0.38.

As for R25Q, the abundance fitness was -0.179 ± 0.1.

On to E30W, for which the abundance fitness is -0.455 ± 0.052.

In the case of E30G, the abundance fitness is -0.273 ± 0.048.

Source of the values: the Human Domainome abundance scans (Beltran et al. 2025).
